Earlier results on 1 substance are cited in PMC7511354.

The series addresses CYP2C9 (Homo sapiens) (UniProt P11712).
Sequence of UniProt P11712 (P11712 whole entry): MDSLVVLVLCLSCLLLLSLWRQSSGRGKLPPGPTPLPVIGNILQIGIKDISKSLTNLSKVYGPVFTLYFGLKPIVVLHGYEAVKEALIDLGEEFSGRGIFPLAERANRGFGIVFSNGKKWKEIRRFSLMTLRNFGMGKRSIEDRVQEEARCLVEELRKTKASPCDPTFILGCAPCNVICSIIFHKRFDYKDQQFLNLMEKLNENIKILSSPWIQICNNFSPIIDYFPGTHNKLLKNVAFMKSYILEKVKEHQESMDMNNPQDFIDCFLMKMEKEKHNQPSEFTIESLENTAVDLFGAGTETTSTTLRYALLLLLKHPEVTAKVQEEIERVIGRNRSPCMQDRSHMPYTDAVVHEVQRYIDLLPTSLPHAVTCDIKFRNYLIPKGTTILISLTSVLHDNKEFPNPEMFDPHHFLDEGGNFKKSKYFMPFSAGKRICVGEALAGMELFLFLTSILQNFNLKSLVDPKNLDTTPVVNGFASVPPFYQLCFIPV

Consider cytochrome b5 (from UniProt P00167), for which the Kd – broadly, a measure of binding affinity in units of concentration – is 794 nM.
